Laboratory results published in patent US20160146827A1.

Target: GST-tagged PAK1-PBD protein (Cytoskeleton Inc.), Rac/Cdc42 (p21) binding domain of human p21 activated kinase 1, residues 67-150 (human) (UniProt Q13153)
Experiment: fluorescence anisotropy in solution

GST-tagged PAK1-PBD protein (Cytoskeleton Inc.), Rac/Cdc42 (p21) binding domain of human p21 activated kinase 1, residues 67-150 (human), sequence (Q13153 67-150 limits assumed): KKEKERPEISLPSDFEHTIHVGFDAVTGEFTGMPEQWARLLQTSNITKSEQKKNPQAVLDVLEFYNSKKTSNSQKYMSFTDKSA

anisotropy (before addition): 0.19
anisotropy (bound): 0.22
increase in anisotropy on binding: 14%
Substance: LUMP-Cdc42, fusion protein of LUMP with the constitutively active GTPase Cdc42 (Q61L) connected by a ten amino acid flexible linker (…) (from UniProt Q06877 1-186; P60953 1-191)
